Target: Full-length DEMETER (DME) fused with the GAL4 DNA binding domain (Arabidopsis) (UniProt Q8LK56)
Assay: two-hybrid

Chain of UniProt Q8LK56 (Q8LK56 whole entry, the tested form may be a part): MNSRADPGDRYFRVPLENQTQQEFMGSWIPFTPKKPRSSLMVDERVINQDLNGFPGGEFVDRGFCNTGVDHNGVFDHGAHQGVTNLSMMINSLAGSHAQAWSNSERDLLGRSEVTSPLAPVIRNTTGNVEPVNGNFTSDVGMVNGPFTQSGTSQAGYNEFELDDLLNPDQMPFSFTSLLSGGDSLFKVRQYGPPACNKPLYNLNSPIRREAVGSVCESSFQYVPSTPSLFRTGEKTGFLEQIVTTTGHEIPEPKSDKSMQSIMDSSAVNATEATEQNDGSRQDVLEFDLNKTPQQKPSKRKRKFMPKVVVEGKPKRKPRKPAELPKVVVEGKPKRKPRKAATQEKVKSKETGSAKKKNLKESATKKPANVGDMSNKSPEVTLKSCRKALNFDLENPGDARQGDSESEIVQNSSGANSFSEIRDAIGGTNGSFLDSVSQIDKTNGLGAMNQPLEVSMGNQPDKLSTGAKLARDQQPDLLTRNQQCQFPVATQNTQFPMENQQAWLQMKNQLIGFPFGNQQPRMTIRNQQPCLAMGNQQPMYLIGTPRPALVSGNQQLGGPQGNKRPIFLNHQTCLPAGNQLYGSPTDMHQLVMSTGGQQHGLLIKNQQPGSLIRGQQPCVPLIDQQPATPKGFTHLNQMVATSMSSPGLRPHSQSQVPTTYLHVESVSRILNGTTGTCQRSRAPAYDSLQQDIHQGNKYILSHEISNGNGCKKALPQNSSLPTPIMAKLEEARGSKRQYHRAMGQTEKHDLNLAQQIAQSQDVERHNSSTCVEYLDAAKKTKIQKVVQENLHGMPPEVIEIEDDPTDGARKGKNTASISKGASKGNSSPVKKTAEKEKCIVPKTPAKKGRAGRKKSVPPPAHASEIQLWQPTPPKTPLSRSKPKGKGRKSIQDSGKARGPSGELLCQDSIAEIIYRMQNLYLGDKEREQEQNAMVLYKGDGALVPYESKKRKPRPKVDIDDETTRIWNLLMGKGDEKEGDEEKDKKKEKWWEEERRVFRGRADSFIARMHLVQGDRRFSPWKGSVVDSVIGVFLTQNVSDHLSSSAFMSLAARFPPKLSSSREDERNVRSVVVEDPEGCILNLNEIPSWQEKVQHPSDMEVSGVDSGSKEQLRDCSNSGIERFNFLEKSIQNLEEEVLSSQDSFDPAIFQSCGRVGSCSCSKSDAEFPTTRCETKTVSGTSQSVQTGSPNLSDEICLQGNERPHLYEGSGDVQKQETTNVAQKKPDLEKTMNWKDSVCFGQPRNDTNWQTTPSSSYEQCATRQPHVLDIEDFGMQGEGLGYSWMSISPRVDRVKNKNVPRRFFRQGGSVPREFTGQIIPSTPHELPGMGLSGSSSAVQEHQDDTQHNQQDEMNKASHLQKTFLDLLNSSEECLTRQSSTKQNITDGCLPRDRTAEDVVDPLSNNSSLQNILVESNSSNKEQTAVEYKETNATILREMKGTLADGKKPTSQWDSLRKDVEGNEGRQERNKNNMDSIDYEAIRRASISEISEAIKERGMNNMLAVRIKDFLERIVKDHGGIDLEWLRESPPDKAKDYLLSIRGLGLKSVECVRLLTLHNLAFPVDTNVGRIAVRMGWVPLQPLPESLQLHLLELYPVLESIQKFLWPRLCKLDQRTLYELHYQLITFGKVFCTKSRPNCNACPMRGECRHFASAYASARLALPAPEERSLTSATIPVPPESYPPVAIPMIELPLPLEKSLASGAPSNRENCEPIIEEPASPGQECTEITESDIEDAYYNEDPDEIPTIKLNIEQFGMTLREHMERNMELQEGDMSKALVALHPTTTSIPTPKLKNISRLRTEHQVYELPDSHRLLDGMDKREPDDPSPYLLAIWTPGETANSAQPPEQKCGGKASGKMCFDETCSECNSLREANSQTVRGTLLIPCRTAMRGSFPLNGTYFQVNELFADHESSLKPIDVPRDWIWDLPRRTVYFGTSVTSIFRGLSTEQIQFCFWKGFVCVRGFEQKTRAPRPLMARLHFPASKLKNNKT

Histone H1.2 fused with the GAL4 activation domain (natural protein)
β-galactosidase activity: 1.67 units

Source: publication PMC3429642
